The values below are quoted from earlier work in article PMC4266928.

The term Kd denotes the constant that tells how readily two partners part at equilibrium.

The target in the data set is insulin (Homo sapiens) (UniProt P01308).

With insulin (from UniProt P01308), the Kd was 10 µM.
